Experimental data reported in publication PMC2175346.

What was measured:
I-PpoI = biological target: T1, I-PpoI (Physarum polycephalum, UniProt Q94702 1-163); test: ITC
T1 sequence: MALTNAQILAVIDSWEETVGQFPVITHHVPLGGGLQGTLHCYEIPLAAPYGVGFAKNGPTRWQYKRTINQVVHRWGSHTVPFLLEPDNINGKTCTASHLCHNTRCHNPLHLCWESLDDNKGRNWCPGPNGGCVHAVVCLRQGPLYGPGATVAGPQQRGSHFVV

I-AniI = biological target: T2, I-AniI (Aspergillus nidulans, UniProt P03880 237-488); test: ITC
T2 sequence: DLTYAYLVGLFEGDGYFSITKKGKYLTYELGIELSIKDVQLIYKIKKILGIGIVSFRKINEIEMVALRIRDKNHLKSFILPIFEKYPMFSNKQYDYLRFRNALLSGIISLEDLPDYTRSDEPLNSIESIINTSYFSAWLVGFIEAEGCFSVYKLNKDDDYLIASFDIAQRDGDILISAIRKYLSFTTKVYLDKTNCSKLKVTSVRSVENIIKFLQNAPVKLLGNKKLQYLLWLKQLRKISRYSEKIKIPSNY

B1: I-PpoI LL palindrome (dsDNA)
DNA 1: GGGGGTGCAGTGACTCTCTTAAGAGAGTCAGACGTGGGGG
DNA 2: CCCCCACGTCTGACTCTCTTAAGAGAGTCACTGCACCCCC
Kd (I-PpoI): 87 ± 8.8 nM

B2: I-PpoI RR palindrome (dsDNA)
DNA 1: GGGGGTGCAGTGGCTACCTTAAGGTAGCCAGACGTGGGGG
DNA 2: CCCCCACGTCTGGCTACCTTAAGGTAGCCACTGCACCCCC
Kd (I-PpoI): 23 ± 1.6 nM

B3: I-AniI WT site (dsDNA)
DNA 1: CCTTCCCTGAGGAGGTTTCTCTGTAAACCCTTCC
DNA 2: GGAAGGGTTTACAGAGAAACCTCCTCAGGGAAGG
Kd (I-AniI): 96 ± 10 nM

B4: I-AniI WT-OPT site (dsDNA)
DNA 1: CCTTCCCTGAGGAGGTTACTCTGTTAACCCTTCC
DNA 2: GGAAGGGTTAACAGAGTAACCTCCTCAGGGAAGG
Kd (I-AniI): 8 ± 1 nM
